B1: EDARADD (parent)
chain: VEKVLRRWVDEEWPKRERGDPSRH

Variants of: B1
Experiment: protein stability index of a GFP-peptide fusion (GPS, HEK-293T) (PSI 1-6); higher = more stable
Details: c terminus: a fixed tail appended
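Also: lentivirally expressed fusions sorted by FACS into six bins by GFP to DsRed ratio, PSI derived from sequencing read proportions per bin multiplied by bin number.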

Protein stability index: each site, then its substitutions
V4: Y 2.5; F 1.97; M 2.67; K 3.06; N 4.2; C 2.62; Q 2.76; I 2.69; W 3.53; T 3.08; A 2.89; D 4.08; P 3.71; H 3.6
V1: T 2.91; A 4.29; Q 2.65; E 4.19; M 2.95; H 3.42; G 3.61; I 2.2; Y 2.56; C 2.77; N 3.91; D 4.36
E2: D 2.9; Q 2.51; C 2.3; M 1.96; Y 1.89; T 2.24; P 2.94; N 3.23; H 2.37; I 1.72; K 1.24; V 1.63; F 1.45
W8: T 4.06; P 4.71; M 3.69; G 4.8; E 4.22; L 2.76; Y 3.12; R 4.13; D 4.56; S 4.97; Q 4.78; A 3.98; N 5.25; C 4.03
E17: C 2.26; A 3.43; M 2.97; G 3.32; P 1.68; N 2.84; H 3.27; W 1.83; R 2.85; K 2.96; D 3.53; V 1.96; S 2.44; Q 2.99
E11: D 3.28; T 2.61; Q 3.05; K 2.08; A 2.73; C 2.43; G 3.1; Y 2.09; N 3.19; S 2.71; P 2.2; R 1.59; M 1.74; H 2.44; I 2.7
P14: E 2.05; W 2.38; G 2.22; D 2.39; K 2.82; V 2.92; C 3.5; S 2.59; L 2.13; T 2.49; Y 2.32
R6: E 3.72; S 3.6; F 2.76; M 3.14; K 3.86; L 2.57; Q 3.79; P 5.27; W 3.38; N 3.94; D 4.34; G 3.12; C 3.06; A 3.88; Y 3.13
P21: H 2.52; T 2.68; W 1.89; C 2.51; A 3.34; F 2.28; M 2.39; K 3.46; Q 3.07; I 2.36; E 3.51; R 2.4; L 2.5; D 3.57
G19: V 2.11; C 2.52; Y 2.21; L 2.37; F 2.05; Q 2.73; P 2.89; I 2.6; M 2.54; K 2.79
S22: K 2.46; F 1.83; W 1.84; V 2.66; G 2.31; H 2.55; A 2.48; N 2.78; I 2.52; E 3.63; T 2.93; P 2.6; R 3.51; Q 2.96; D 3.26
R23: A 2.83; I 3.32; E 3.71; N 2.81; S 3.07; D 3.05; Y 2.87; M 2.45; L 2.66; W 1.88; G 2.59; H 3.38; F 1.98; P 3.56; V 2.44; C 3
K15: Q 2.24; G 3.44; S 3.33; Y 2.31; C 3.18; R 2.42; A 2.72; W 1.71; I 2.82
D20: P 2.04; Q 2.5; M 2.21; H 2.81; L 2.5; V 2.71; N 2.94; T 3.07; G 2.81; S 2.68; A 3.45; Y 2.63; W 2.61; F 2.35; R 2.48
R16: E 3.66; F 2.46; V 2.49; S 2.58; P 3; K 2.48; T 3.46; I 3.77; Q 2.1; N 3.62; L 2.69; M 2.7; D 2.83; Y 2.14
W13: M 2.62; P 3.75; N 3.86; I 3.35; E 3.75; Q 3.94; F 2.01; S 3.54; V 3.98; D 3; C 3.21; H 4
V9: K 2.9; D 4.36; E 4.17; S 4.07; Q 3.31; W 3.05; R 3.48; H 3.46; G 3.83; M 3.17; Y 3.1; I 2.38; C 2.72
H24: D 3.06; E 2.48; Q 3.56; A 2.59; W 1.84; Y 2.41; K 3.04; T 2.96; M 3.47; I 2.3; N 2.75; G 2.71; R 3.5; F 2.61; P 2.37; C 2.13
R18: S 2.83; K 1.81; W 2.64; L 2.81; E 3.73; V 2.99; P 3.34; I 3.12; A 2.29; Y 2.44; G 3.58; C 2.91; N 3.22; T 2.96; Q 3.53; F 2.5; M 3.15
E12: A 1.87; K 2.66; F 1.78; W 1.54; P 2.4; C 2.28; Y 1.81; G 2.81; H 1.99; Q 1.95; M 2.08; S 2.36; D 2.45; I 2.06; R 3.4; T 2.27
D10: S 3.4; I 2.65; F 2.81; A 2.53; L 3.29; K 2.4; P 3.4; H 2.44; T 2.74; C 2.69; M 2.26; Q 2.73; W 2.88; G 3.39
L5: R 1.99; T 3.98; W 2.98; N 3.94; E 4.5; H 4.26; C 2.71; Y 2.34; G 4.19; M 3.3; S 2.8; P 4.07; K 2.96
R7: T 3.6; S 3.46; L 2.62; H 3.56; V 3.43; M 2.69; P 3.9; K 3.29; W 2.49; N 4.48; F 3.61; E 3.91; C 2.35; D 4.05; Y 2.7; I 2.32; A 3.09
K3: S 3.01; N 3.26; Q 2.85; Y 2.77; D 4.38; F 2.21; H 5.03; P 3.8; C 3.38; G 4.05; E 3.55; V 2.09; W 1.36; L 2.41; A 2.78

Reference: the supplement of paper PMC10567573
